Experimental data: the supplement of paper PMC9170038

Test system: MS2 coat protein
Experiment: apparent KD of MS2 coat protein; designed switch direction (-1 OFF switch, 1 ON switch): -1; higher = weaker reporter binding
Outline: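 Stalled E. coli RNA polymerase transcribed designed RNA switches on Illumina chips, which were then titrated with SNAP-549-labelled MS2 coat protein, doubling from 0.7 or 1.5 nM to 3 µM. Steps lasted from 0.8–1.5 h at the lowest concentration to 10–20 min at the highest. The apparent KD is each design's median over clusters of curve-fitted normalised fluorescence.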

[1] = input ligand: microRNA oligo, concentration not stated

Sequence | apparent KD of MS2 coat protein (input ligand: FMN 200 uM) | apparent KD of MS2 coat protein (input ligand: none) | apparent KD of MS2 coat protein [1] | apparent KD of MS2 coat protein (Eterna round: R95, input ligand: microRNA oligo, concentration not stated)
AAUAACAAGCUGAUCCUGCACAUGAGGAUCACCCAUGUGCUCGUCUUGUAAAGUACUAUCACGAAAGUGAUAGUACA (Eterna round: R97, puzzle: Sensor, turn-off variant 1) | 16.3 nM | 21.2 nM |  | 
AGUACUAACACGGGUGUGUUAGUACAAUAAGCUUGUGAAACAUGAGGAUCACCCAUGUCCUCAUAAGCUCGUCUUAU [salish99_TOv2_r3_075] (Eterna round: R96, puzzle: Sensor v3, turn-off variant 2) | 15.3 nM | 16.6 nM | 503 nM | 
GAGCAGCCGAUAGGAUAUUCCGAGCUAAAGAGCAGUAGGACAUGAGGAUCACCCAUGUGUGCAUGGAAGAAGGGUCACUUCCAG [Eternabot solution 23] (Eterna round: R96, puzzle: Exclusion NG 2) | 25.8 nM | 30.7 nM | 24.2 nM | 
AGAUGCUCAAGUCGACAUGAGGAUCACCCAUGUACAGUAAACGAGGAUAUCCGAGAUAAAUAAUAGGAGAAGGCGUGAUCAUGA [Mat - Exclusion NG 3 - Mod of JL - D55] (Eterna round: R96, puzzle: Exclusion NG 3) | 337 nM | 86.3 nM | 66 nM | 
GGUCGGGCAAAGGAUGCCCACAUGAGGAUCACCCAUGUACAAGACUUUAAGGUGCGUAAGCGCAUACGGCUCGUUAA [Eternabot (L1) Solution 26] (Eterna round: R97, puzzle: Sensor, turn-off variant 1) | 15.9 nM | 16.5 nM |  | 
CCGCUCCGUGUAGGAUAUUGGCGUGCUCUGCGCCGAGAAGGACAUGAGGAUCACCCAUGUAUGUUAUUAUCACGCGUGGCGCAU [Design 78] (Eterna round: R96, puzzle: Exclusion NG 1) | 30.6 nM | 18.6 nM | 11.5 nM | 
GGGUAGGGAGGAUAUCCAAUAUAUGACAUGAGGAUCACCCAUGUUUCCACUCGUACCUCCGGAGAAGGCCCAUCCC [Ex5 #14] (Eterna round: R97, puzzle: Exclusion 5) | 25.6 nM | 21.4 nM |  | 
UUAAGGGACUGAGGAUAUACAUGAAUUAUGUUUGUAGAAGGCAGAUUGUUAGUUUAUUCACUAUACAUGAGGAUCACCCAUGUU [JR_ExcNG1_Sub019] (Eterna round: R96, puzzle: Exclusion NG 1) |  |  | 17.1 nM | 
AUAAUGUGAGGAUAUCAGUCGACUAGCCUCGGCUAGUCGACUGAGAAGGCACAUGAGGAUCACCCAUGUAGAUC [E4/17-A2] (Eterna round: R97, puzzle: Exclusion 4) | 75.8 nM | 825 nM |  | 
UACUGGACAGGAUAUGUUCUUGAGCACUUGAGGAUCACCCAAGUCAUCAAGAACUCAGGCACAGAAGGGUUUAUGA [salish99_ex5_r4_004] (Eterna round: R97, puzzle: Exclusion 5) | 22 nM | 15.4 nM |  | 
ACAUGAGGAUCACCCAUGUACAGGGUGUAGUUUCAUUGUUUGAAGGAUAUACUUAGUUAGUUGUUGUAGAAGGUCAUAUUUCAU [JR_ExcNG3_Sub001] (Eterna round: R96, puzzle: Exclusion NG 3) | 126 nM | 1040 nM | 500 nM | 
UAUAUAUAGUAAGGAUAUGUAUUUAUUUUAUUAACAGAAGGUACUGACAUGAGGAUCACCCAUGUUUUAGUGUGGGCAUGUAGA [JMF's solution 25] (Eterna round: R96, puzzle: Exclusion NG 1) |  |  | 77.7 nM | 
UUUUAACAUGAGGAUCACCCAUGUGAGGAUAUCGAAAUUUAUAUUAAUAUUAAUUAUACGAGAAGGCACAUUUU [JMF 30] (puzzle: Exclusion 1) |  |  |  | 84 nM
GCAGCUAGUUCAGGAUAUCAGCACGAUUAGUGCUGAGAAGGGAACAUGAGGAUCACCCAUGUGAUCAAUGCUGCAAUUUUAAUU [ENG1/12-A1] (Eterna round: R96, puzzle: Exclusion NG 1) | 481 nM | 597 nM | 235 nM | 
UAUGGUUAAGUCAGGAUAUACAAAUAGAAAUCUGAGUAGAAGGGACAUGAGGAUCACCCAUGUAUGGUAGUGUU [Ex4 #57] (Eterna round: R97, puzzle: Brourd's mod of Exclusion 4) | 79 nM | 74.3 nM |  | 
CGUAUGUGAGGAUAUGACAAUGGUAUCUUCGGAUACCAUUGUCAGAAGGAACAUGAGGAUCACCCAUGUAGAUC (Eterna round: R96, puzzle: Exclusion 4) | 161 nM | 54.5 nM | 43.1 nM | 
